Test results from article PMC10849593 (Science Advances, 2024).
One block for each binder: values may come before it.

Legend:
[1] = target: T1, MutSβ WT, MSH3 subunit;MutSβ, MSH2 subunit (human;human?, UniProt P20585;P43246 1-1137;1-934, |); assay: EMSA
[2] = target: T1, MutSβ WT, MSH3 subunit;MutSβ, MSH2 …; assay: pull-down
[3] = target: MutLβ (MLH1-PMS1 heterodimer) carrying a 6xHis tag on the PMS1 subunit (human, UniProt P40692;P54277); assay: pull-down

Binder: AGGGGGGAGGGAGGGTGG (structured_DNA) [CEB1 G4]
binding result [1]: binds

B1: b66-G4 (structured_DNA)
DNA: TTTTTTTTTTTTTTTTTTTTTTTTTTTTTTTTTTTTTTTTTTTTTGGGTGGGTGGGTGGGTTTTTT
binding result [2]: binds

binding result [3]: binds
B2: Flag-tagged FANCJ (enzyme)
chain: MSSMWSEYTIGGVKIYFPYKAYPSQLAMMNSILRGLNSKQHCLLESPTGSGKSLALLCSALAWQQSLSGKPADEGVSEKAEVQLSCCCACHSKDFTNNDMNQGTSRHFNYPSTPPSERNGTSSTCQDSPEKTTLAAKLSAKKQASIYRDENDDFQVEKKRIRPLETTQQIRKRHCFGTEVHNLDAKVDSGKTVKLNSPLEKINSFSPQKPPGHCSRCCCSTKQGNSQESSNTIKKDHTGKSKIPKIYFGTRTHKQIAQITRELRRTAYSGVPMTILSSRDHTCVHPEVVGNFNRNEKCMELLDGKNGKSCYFYHGVHKISDQHTLQTFQGMCKAWDIEELVSLGKKLKACPYYTARELIQDADIIFCPYNYLLDAQIRESMDLNLKEQVVILDEAHNIEDCARESASYSVTEVQLRFARDELDSMVNNNIRKKDHEPLRAVCCSLINWLEANAEYLVERDYESACKIWSGNEMLLTLHKMGITTATFPILQGHFSAVLQKEEKISPIYGKEEAREVPVISASTQIMLKGLFMVLDYLFRQNSRFADDYKIAIQQTYSWTNQIDISDKNGLLVLPKNKKRSRQKTAVHVLNFWCLNPAVAFSDINGKVQTIVLTSGTLSPMKSFSSELGVTFTIQLEANHIIKNSQVWVGTIGSGPKGRNLCATFQNTETFEFQDEVGALLLSVCQTVSQGILCFLPSYKLLEKLKERWLSTGLWHNLELVKTVIVEPQGGEKTNFDELLQVYYDAIKYKGEKDGALLVAVCRGKVSEGLDFSDDNARAVITIGIPFPNVKDLQVELKRQYNDHHSKLRGLLPGRQWYEIQAYRALNQALGRCIRHRNDWGALILVDDRFRNNPSRYISGLSKWVRQQIQHHSTFESALESLAEFSKKHQKVLNVSIKDRTNIQDNESTLEVTSLKYSTSPYLLEAASHLSPENFVEDEAKICVQELQCPKIITKNSPLPSSIISRKEKNDPVFLEEAGKAEKIVISRSTSPTFNKQTKRVSWSSFNSLGQYFTGKIPKATPELGSSENSASSPPRFKTEKMESKTVLPFTDKCESSNLTVNTSFGSCPQSETIISSLKIDATLTRKNHSEHPLCSEEALDPDIELSLVSEEDKQSTSNRDFETEAEDESIYFTPELYDPEDTDEEKNDLAETDRGNRLANNSDCILAKDLFEIRTIKEVDSAREVKAEDCIDTKLNGILHIEESKIDDIDGNVKTTWINELELGKTHEIEIKNFKPSPSKNKGMFPGFK
